Source: article PMC10715038 (2023)

B1: horse ACE2 extracellular domain, human IgG1 Fc fusion protein (Fc fusion)
chain: QSTTEDLAKTFLEKFNSEAEELSHQSSLASWSYNTNITDENVQKMNEAGARWSAFYEEQCKLAKTYPLEEIQNLTVKRQLQALQQSGSSVLSADKSKLNEILNTMSTIYSTGKVCNPSNPQECLLLEPGLDAIMENSKDYNQRLWAWEGWRSEVGKQLRPLYEEYVVLKNEMARANNYEDYGDYWRGDYEAEGPSGYDYSRDQLIEDVERTFAEIKPLYEHLHAYVRAKLMDTYPSHINPTGCLPAHLLGDMWGRFWTNLYSLTVPFGQKPNIDVTDAMVDQSWDAKRIFEEAEKFFVSVGLPNMTQGFWENSMLTEPGDGRKVVCHPTAWDLGKGDFRIKMCTKVTMDDFLTAHHEMGHIQYDMAYAVQPYLLRNGANEGFHEAVGEIMSLSAATPNHLKAIGLLPPDFYEDSETEINFLLKQALTIVGTLPFTYMLEKWRWMVFKGEIPKEEWMKKWWEMKREIVGVVEPVPHDETYCDPAALFHVANDYSFIRYYTRTIYQFQFQEALCQTAKHEGPLHKCDISNSTEAGQKLLQMLSLGKSEPWTLALERIVGVKNMDVRPLLNYFEPLFTWLKDQNKNSFVGWSTNWSPYADQSIKVRISLKSALGEKSYEWNDNEMYLFQSSVAYAMRVYFLKAKNQTILFGEEDVWVSDLKPRISFNFFVTSPKNASDIIPRTDVEEAIRMSRSRINDAFRLDDNTLEFLGIQPTLGPPYQPPVTV
B2: cat ACE2 extracellular domain, human IgG1 Fc fusion protein (Fc fusion)
chain: QSTTEELAKTFLEKFNHEAEELSYQSSLASWNYNTNITDENVQKMNEAGAKWSAFYEEQSKLAKTYPLAEIHNTTVKRQLQALQQSGSSVLSADKSQRLNTILNAMSTIYSTGKACNPNNPQECLLLEPGLDDIMENSKDYNERLWAWEGWRAEVGKQLRPLYEEYVALKNEMARANNYEDYGDYWRGDYEEEWTDGYNYSRSQLIKDVEHTFTQIKPLYQHLHAYVRAKLMDTYPSRISPTGCLPAHLLGDMWGRFWTNLYPLTVPFGQKPNIDVTDAMVNQSWDARRIFKEAEKFFVSVGLPNMTQGFWENSMLTEPGDSRKVVCHPTAWDLGKGDFRIKMCTKVTMDDFLTAHHEMGHIQYDMAYAVQPFLLRNGANEGFHEAVGEIMSLSAATPNHLKTIGLLSPGFSEDSETEINFLLKQALTIVGTLPFTYMLEKWRWMVFKGEIPKEQWMQKWWEMKREIVGVVEPVPHDETYCDPASLFHVANDYSFIRYYTRTIYQFQFQEALCRIAKHEGPLHKCDISNSSEAGKKLLQMLTLGKSKPWTLALEHVVGEKKMNVTPLLKYFEPLFTWLKEQNRNSFVGWNTDWRPYADQSIKVRISLKSALGDEAYEWNDNEMYLFRSSVAYAMREYFSKVKNQTIPFVEDNVWVSNLKPRISFNFFVTASKNVSDVIPRSEVEEAIRMSRSRINDAFRLDDNSLEFLGIQPTLSPPYQPPVT

Target: SARS-CoV-2 WHU01 RBD, monomeric (SARS-CoV-2 (WHU01), UniProt P0DTC2)
Experiment: SPR

Binder | Kd [nM]
B1 | 89.8
B2 | 554
